# Numbering of substitutions follows the chain as printed.
# B1: antibody 433 (antibody, V domains shown)
# VH: QVQLVESGGGVVQPGRSLRLSCAASGFTFSSYAMHWVRQAPGKGLEWVAVISYDGSNKYYADSVKGRFTISRDNSKNTLYLQMNSLRAEDTAVYYCAKDYEVVIAIGGPGAFDYWGQGTLVTVSS
# VL: SYVLTQPPSVSVAPGKTARITCGGNNIGSKSVHWYQQKPGQAPVLVIYYDSDRPSGIPERFSGSNSGNTATLTISRVEAGDEADYYCQVWDSSSDHVVFGGGTKLTVL
# B2: antibody 430 (antibody, V domains shown)
# VH: QVHLVEAGGGVVQPGKSLRLSCAASGFIFSNFGMHWVRQSPGKGLEWVAVVSYDASVTKYSDSFEGRFTISRDNSKNTLYLQMDSLRPEDSAVYYCAKGQGANLLHDWGQGILVTVSS
# VL: DVVLTQSPLSLPVTLGQPASISCRSSESLVYTDGDTYLHWFHQRPGQSPRRLIYKVSNRDSGVPDRFSGSGSGTDFTLRISRVEAEDVGVYYCMQGTHWPFTFGPGTKVDIK
# B3: antibody 440 (antibody, V domains shown)
# VH: EVQLLESGGGLVQPGGSLRLSCAASGFTFSSYAMSWVRQAPGKGLEWVSAISGSGVNTYHADSVKGRFTISRDNSRNTLYLQMSSLTAEDTAAYYCAKDFEAASGAYYYYGMDVWGQGTTVTVSS
# VL: SYELTQPPSVSVSPGQTARITCSGDALPDQYAYWYQQKPGQAPVVVIYKDRERPSGIPERFSGSNSGTTVTLTISGVQAEDEADYYCQSADSSATYVVFGGGTKLTVL
# B4: antibody 438 (antibody, V domains shown)
# VH: EVQLVESGGGLVQPGGSLRLSCAASGFTFSSYSMNWVRQAPGKGLEWVSYISSSSSTIYYADSVKGRFTISRDNAKNSLYLQMNSLRAEDTAVYYCARDRGYSDYGPYYYGMDVWGQGTTVTVSS
# VL: not shown
# B5: antibody 509 (antibody, V domains shown)
# VH: QVQLVESGGGVVQPGRSLRLSCAASGFNLSSYAMHWVRQASGKGLEWVSLISYDGSIKYYTDSVKGRFTVSGDNSKNTLFLQMNSLRADDSALYYCVRGGVSGPNSFDLWGQGTTVTVSS
# VL: DVVMTQSPLSLPVTLGQPASISCRSSQSLVYSDGNTYVNWFQQRPGQSPRRLIYKVSIRASGVPDRFSGSGSGTDFALKISRVEAEDVGVYYCMQGTHWPVTFGQGTKVEIK
# B6: antibody 510 (antibody, V domains shown)
# VH: QVQLQESGPGLVKPSQTLSLTCTVSGGSISSGSYYWSWIRQPAGKGLEWIGRIYTSGSTNYNPSLKSRVTISVDTSKNQFSLKLSSVTAADTAVYYCAREGQWLYRFDYWGQGTLVTVSS
# VL: QSALTQPASVSGSPGQSITISCTGTSSDVGNYDLVSWYQQHPGKAPKLVIYGVTKRPSGVSNRFSGSKSGNTASLTISGLQAEDEADYYCCSYATGDTSVFGTGTKVTVL
# B7: antibody 410 (antibody, V domains shown)
# VH: QVQLVQSGAEVKKPGASVKVSCKASGYTFTSYGISWVRQAPGQGLEWMGWISAYNGNTNYAQKLQGRVTMTTDTSTSTAYMELRSLRSDDTAVYYCARGRITIFGVEYYYGMDVWGQGTTVTVSS
# VL: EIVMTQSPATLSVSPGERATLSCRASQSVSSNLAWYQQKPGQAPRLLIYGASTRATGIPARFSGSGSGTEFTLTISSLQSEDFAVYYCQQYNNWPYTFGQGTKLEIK
# B8: antibody 381 (antibody, V domains shown)
# VH: QVQLVESGGGVVQPGRSLRLSCAASGFTFSSYAMHWVRQAPGKGLEWVAVISYDGSNKYYADSVKGRFTISRDNSKNTLYLQMNSLRAEDTAVYYCARDRQYYDILTGYYLPTSEYYFDYWGQGTLVTVSS
# VL: DIQMTQSPSSVSASVGDRVTITCRASQGISSWLAWYQQKPGKAPKLLIYAASSLQSGVPSRFSGSGSGTDFTLTISSLQPEDFATYYCQQANSFPPTFGGGTKVEIK
# B9: antibody 399 (antibody, V domains shown)
# VH: QVQLVQSGAEVKKPGASVKVSCKASGYTFTSYGISWVRQAPGQGLEWMGWISAYNGNTNYAQKLQGRVTMTTDTSTSTAYMELRSLRSDDTAVYYCARDSGYDWAGGHYYYYGMDVWGQGTTVTVSS
# VL: QSALTQPASVSGSPGQSITISCTGTSSDVGGYNYVSWYQQHPGKAPKLMIYEVSNRPSGVSNRFSGSKSGNTASLTISGLQAEDEADYYCSSYTSSSTLVVFGGGTKLTVL
# B10: antibody 368 (antibody, V domains shown)
# V domain 1: QITLKESGPTLVKPTETLTLTCAFSGFSLTKTGEAAGWIRQAPGRALEWVTVIFWDDDKRYSPSLQNRLTVTKDTSKNVVVLTMTNVDPVDTATYFCWAMGGPGKEFFGQGTRVAVSS
# V domain 2: QSVLTQPPSVSGAPGQRVTVSCTGTSSSIGPYSDVHWYQHIPGKAPRLLIFGTSNRPSGVPARFSGSKSGSSASLVIAGLQAEDEADYYCQSYDSSLGEIYVFGTGTTVTVL
# B11: antibody 402 (antibody, V domains shown)
# VH: QVQLVQSGAEVKKPGASVKVSCKVSGYTLTELSMHWVRQAPGKGLEWMGGFDPEDVETIYAQKFQGRVTMTEDTSTDTAYMELSSLRSEDTAVYYCATGVAVVGTSHSYYYYYGMDVWGQGTTVTVSS
# VL: DIQMTQSPSSLSASVGDRVTITCRASQGISNYLAWYQQKPGKVPKLLIYAASTLQSGVPSRFSGSGSGTDFTLTISSLQPEDVATYYCQKYNSAPFTFGPGTKVDIK
# B12: antibody 387 (antibody, V domains shown)
# VH: QVQLVESGGGVVQPGRSLRLSCAASGFTFSSYGMHWVRQAPGKGLEWVAVISYDGSNKYYADSVKGRFTISRDNSKNTLYLQMNSLRAEDTAVYYCAKDDTKNYGDLDIDYWGQGTLVTVSS
# VL: SYELTQPSSVSVSPGQTARITCSGDVLAKKYARWFQQKPGQAPVLVIYKDSERPSGIPERFSGSSSGTTVTLTISGAQVEDEADYYCYSAADNNLGVFGGGTKLTVL
# B13: antibody 394 (antibody, V domains shown)
# VH: QVQLVQSGAEVKKPGASVKVSCKASGYTFTGYYMHWVRQAPGQGLEWMGWINPNNGGTNSAQKFQGRVTMTRDTSISTAYMELNRLRSDDTAVYYCARDITTTAGTDYYYGMDVWGQGTTVTVSS
# VL: B3 VL with D29K, V45L, Y48C, R51S, N65S, A94G, V97I, G101T, L105V
# B14: antibody 397 (antibody, V domains shown)
# VH: QVQLVESGGGVVQPGRSLRLSCAASGFTFSSYGMHWVRQAPGKGLESVAVISYDGSNKYYADSVKGRFTISRDNSKNTLYLQMNSLRAEDTAVYYCAKEGQWELQGNAFDIWGQGTMVTVSS
# VL: B3 VL with D29K, V45L, R51S, N65S, A90G, A94G, V97R
# B15: antibody 401 (antibody, V domains shown)
# VH: QVQLVQSGAEVKKPGSSVKVSCKASGGTFSSYAISWVRQAPGQGLEWMGRIIPILGIANYAQKFQGRVTIIADKSTSTAYMELSSLRSEDKAVYYCAREGKSDSSSALWYFDLWGRGTLVTVSP
# VL: not shown
# B16: antibody 404 (antibody, V domains shown)
# VH: QVQLVESGGGVVQPGRSLRLSCAASGFTFSSYGMHWVRQAPGKGLEWVAVIWYDGSNKYYADSVKGRFTISRDNSKNTLYLQMNSLRAEDTAVYYCARLAVDISFDGSDGMDVWGQGTTVTVSS
# VL: SYELTQPPSVSVSPGQTARITCSGDALPKKYAYWYQQKSGQAPVLVIYEDSKRPSGIPERFSGSSSGTMATLTISGAQVEDEADYYCYSTDSSGKGVFGTGTKVTVL
# B17: antibody 370 (antibody, V domains shown)
# VH: QVQLVESGGGVVPPGRSLSLPCAASGFTFSAYAMHWLRQAPGKGLEWVAVISYDGTVKYVADSVRGRFTISRDNSNNTLYLQMTSLRSDDTAVYYCARDLGALAAAPTVYFVHWGQGTLVTVSS
# VL: SYVLTQPPSVSVAPGKTATITCAGEDIGRKSVHWYQQKPGQAPVLVIFYYSDRPSGIPDRFSGSVSGNTATLTIGRVEAGDEADYFCQVWDRTTNHVIFGGGTKVTVL
# B18: antibody 391 (antibody, V domains shown)
# VH: EVQLVESGGGLVQPGGSLRLSCAASGFTFSSYWMHWVRQAPGKGLVWVSRINSDGSSTSYADSVKGRFTISRDNAKNTLYLQMNSLRAEDTAVYYCALGPLDIVGSYYYYGMDVWGQGTTVTVSS
# VL: NFMLTQPHSVSESPGKTVTISCTGSSGSIASNYVQWYQQRPGSAPTTVIYEDNQRPSGVPDRFSGSIDSSSNSASLTISGLKTEDEADYYCQSYDSSNQDVVFGGGTKLTVL
# B19: antibody 291 (antibody, V domains shown)
# VH: QVQLVESGGGVVQPGRSLRLSCAASGFTFSSYAMHWVRQAPGKGLEWVAVISYDGSNKYYADSVKGRFTISRDNSKNTLYLQMNSLRAEDTAVYYCARASGGSYFGGMDVWGQGTTVTVSS
# VL: B9 VL with V100Y, G104T, L108V
# B20: antibody 258 (antibody, V domains shown)
# VH: QVQLQESGPGLVKPSETLSLTCTVSGGSISSYYWSWIRQPAGKGLEWIGRIYTSGSTNYNPSLKSRVTMSVDTSKNQFSLKLSSVTAADTAVYYCAAGYGSIDYWGQGTLVTVSS
# VL: not shown
# Target: SARS-CoV-2 full length spike protein, D614G mutant (SARS-CoV-2, UniProt P0DTC2 14-1273)
row,Binder,median fluorescence fold over isotype control
1,B1,23.1 fold over isotype
2,B2,9.17 fold over isotype
3,B3,15.8 fold over isotype
4,B4,71.2 fold over isotype

# Target: SARS-CoV-2 full length spike protein, V483A mutant, expressed on CHO cells (SARS-CoV-2, UniProt P0DTC2 14-1273)
row,Binder,"median fluorescence intensity, fold over isotype control"
1,B5,11.4 fold over isotype
2,B6,1.06 fold over isotype

# Target: SARS-CoV-2 full length spike protein, V367F mutant, expressed on CHO cells (SARS-CoV-2, UniProt P0DTC2 14-1273)
row,Binder,median fluorescence fold over isotype control
1,B7,7.64 fold over isotype
2,B8,43.6 fold over isotype
3,B9,30.6 fold over isotype
4,B10,31.6 fold over isotype
5,B11,46.9 fold over isotype
6,B12,6.69 fold over isotype
7,B13,37.8 fold over isotype
8,B14,32.8 fold over isotype
9,B15,35.5 fold over isotype
10,B16,27.4 fold over isotype
11,B17,35.3 fold over isotype
12,B18,18.8 fold over isotype

# Target: SARS-CoV-2 full length spike protein, D614G mutant, expressed on CHO cells (SARS-CoV-2, UniProt P0DTC2 14-1273)
row,Binder,median fluorescence fold over isotype control
1,B7,17.9 fold over isotype
2,B8,67.9 fold over isotype
3,B9,70.1 fold over isotype
4,B10,64.3 fold over isotype
5,B11,67.8 fold over isotype
6,B12,15.9 fold over isotype
7,B13,63.4 fold over isotype
8,B14,7.97 fold over isotype
9,B15,8.76 fold over isotype
10,B16,6.02 fold over isotype
11,B17,9.47 fold over isotype
12,B18,35.6 fold over isotype

# Target: SARS-CoV-2 full length spike protein, D614G mutant (SARS-CoV-2, UniProt P0DTC2 14-1273)
# Remark: another data set of the same source
row,Binder,"median fluorescence intensity, fold over isotype control"
1,B19,8.03 fold over isotype
2,B20,6.88 fold over isotype

# Target: SARS-CoV-2 full length spike protein, V367F mutant (SARS-CoV-2, UniProt P0DTC2 14-1273)
row,Binder,median fluorescence fold over isotype control
1,B1,12.3 fold over isotype
2,B2,38.3 fold over isotype
3,B3,7.17 fold over isotype
4,B4,44 fold over isotype
